Source: patent US6686177B1, “Insulin analogs with enhanced zinc binding” (Aventis Pharma Deutschland GmbH, priority 1998, dated 2004)

What was measured:
[1] = Zinc binding of insulin analogs (dialysis against zinc-free neutral buffer, HPLC and atomic absorption spectroscopy); format: physicochemical; settings: for Zinc binding: after extensive dialysis against zinc-free neutral buffer, pH 7.4; for zinc ions bound per hexamer: aqueous neutral solution, not removable by dialysis
Method: The dialyzates were then acidified and analyzed. The concentration of insulin was determined by reversed phase HPLC and that of the zinc by atomic absorption spectroscopy. The zinc values were corrected using the zinc content of a control batch which contained no insulin.

[2] = aqueous neutral solution, not removable by dialysis; cited from earlier work

human insulin [reference compound]
Zinc binding [1]: 2.5 mol of zinc/mol of hexamer
zinc ions complexed per hexamer via the His(B10) side chains [2]: two

His(B3)-human insulin [His(B3)-insulin]
Zinc binding [1]: 6.9 mol of zinc/mol of hexamer
zinc ions bound per hexamer [1]: approximately 7 zinc ions/hexamer

Asp(B3)-human insulin [Asp(B3)-insulin]
Zinc binding [1]: 4.2 mol of zinc/mol of hexamer
zinc ions bound per hexamer [1]: 4.2 zinc ions/hexamer
